Measurements: publication PMC5756042, “Molecular Defects of the Disease-Causing Human Arrestin-1 C147F Mutant” (Investigative Ophthalmology & Visual Science, 2018)
Where a chain is given by its changes, count along the chain named. Numbers in names are those of the source.

B1: human arrestin-1 C147F mutant (natural protein, UniProt P10523 1-405, looked up)
chain: MAASGKTSKSEPNHVIFKKISRDKSVTIYLGNRDYIDHVSQVQPVDGVVLVDPDLVKGKKVYVTLTCAFRYGQEDIDVIGLTFRRDLYFSRVQVYPPVGAASTPTKLQESLLKKLGSNTYPFLLTFPDYLPCSVMLQPAPQDSGKSFGVDFEVKAFATDSTDAEEDKIPKKSSVRLLIRKVQHAPLEMGPQPRAEAAWQFFMSDKPLHLAVSLNKEIYFHGEPIPVTVTVTNNTEKTVKKIKAFVEQVANVVLYSSDYYVKPVAMEEAQEKVPPNSTLTKTLTLLPLLANNRERRGIALDGKIKHEDTNLASSTIIKEGIDRTVLGILVSYQIKVKLTVSGFLGELTSSEVATEVPFRLMHPQPEDPAKESYQDANLVFEEFARHNLKDAGEAEEGKRDKNDVDE
modifications: labeled with 14C-Leu and 3H-Leu
notes: human arrestin-1 with the disease-causing C147F mutation (dominant retinitis pigmentosa in humans), transcription construct in pGEM2; The mutation occurs in human patients; here it was introduced into the transcription construct by PCR; also called CF; source: in vitro translated (rabbit reticulocyte lysate), radiolabelled
B2: human arrestin-1 C147I mutant (natural protein, UniProt P10523 1-405, looked up)
chain: B1 chain with F147I
modifications: labeled with 14C-Leu and 3H-Leu
notes: source: in vitro translated (rabbit reticulocyte lysate), radiolabelled
B3: human arrestin-1 C147L mutant (natural protein, UniProt P10523 1-405, looked up)
chain: B1 chain with F147L
modifications: labeled with 14C-Leu and 3H-Leu
notes: as for B2

Biological target: T1, light-activated unphosphorylated rhodopsin (bovine, UniProt P02699 1-348)
T1 construct: source: purified from cow eyes; unphosphorylated; rhodopsin-containing membranes
T1 sequence (P02699 whole entry): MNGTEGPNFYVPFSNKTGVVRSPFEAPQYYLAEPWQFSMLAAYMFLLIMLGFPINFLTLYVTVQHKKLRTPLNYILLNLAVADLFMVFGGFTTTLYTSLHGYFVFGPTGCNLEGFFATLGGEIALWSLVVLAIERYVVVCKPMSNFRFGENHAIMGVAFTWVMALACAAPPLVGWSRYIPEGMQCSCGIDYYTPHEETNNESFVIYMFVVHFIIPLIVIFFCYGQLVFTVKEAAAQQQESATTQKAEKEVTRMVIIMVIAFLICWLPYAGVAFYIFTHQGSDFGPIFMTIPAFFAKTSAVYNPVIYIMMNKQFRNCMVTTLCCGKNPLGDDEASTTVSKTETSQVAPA
Experiment: radioligand binding; direct binding assay: 1 nM radiolabelled arrestin-1 (50 fmol) with 0.3 μg P-Rh* or Rh* (0.22 μM) in 50 μL of 50 mM Tris-HCl pH 7.4, 100 mM potassium acetate, 1 mM EDTA, 1 mM dithiothreitol, 5 minutes at 37°C under room light; bound and free separated at 4°C on Sepharose 2B-CL; scintillation counting; nonspecific binding subtracted
Details: one partner purified

Row | fold increase of Rh* binding against WT [fold] | Binder
1 | > 2 | B1
2 | > 2 | B2
3 | > 2 | B3
